Source: the supplement of paper PMC9170038

System: MS2 coat protein
Test: apparent KD of MS2 coat protein; designed switch direction (-1 OFF switch, 1 ON switch): 1; higher = weaker reporter binding
In short: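 Transcription of designed RNA switches on Illumina chips was done by stalled E. coli RNA polymerase. SNAP-549-labelled MS2 coat protein was then titrated in doubling steps from 0.7 or 1.5 nM to 3 µM, with steps of 0.8–1.5 h at the lowest and 10–20 min at the highest concentration. The per-design median over clusters of curve-fitted normalised fluorescence is reported as apparent KD.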

[1] = input ligand: microRNA oligo, concentration not stated
[2] = Eterna round: R95, input ligand: microRNA oligo, concentration not stated
[3] = Eterna round: R95, input ligand: FMN 200 uM
[4] = Eterna round: R95, input ligand: none

Row | Sequence | apparent KD of MS2 coat protein (input ligand: FMN 200 uM) | apparent KD of MS2 coat protein [1] | apparent KD of MS2 coat protein (input ligand: none) | apparent KD of MS2 coat protein [2] | apparent KD of MS2 coat protein [3] | apparent KD of MS2 coat protein [4]
1 | CGACCAAUUGUUUAAUAAACAUGAGGAUCACCCAUGUUUCGUGAGGAUAUCUAGGGUGAAGCACGGGAGAAGGCACUACGGUCA [Eternabot solution 21] (Eterna round: R96, puzzle: Same State NG 3) | 142 nM | 120 nM | 134 nM | – | – | –
2 | CGCCCGAAUGAAGGAUAUGGUACAACACGAUGAUCAGAAGGUUAUUAAAGUGGGUGAUGCCGACAUGAGGAUCACCCAUGUUGG [Eternabot solution 40] (Eterna round: R96, puzzle: Same State NG 1) | 53.1 nM | 60 nM | 66.9 nM | – | – | –
3 | CGGCGCUGUCGAGAGGAUAUGCGGUGAUGGACAUGAGGAUCACCCAUGUUAGCGAUAGCAUUACGGUAGAAGGCUCUACAGCUGC [Soteed Omei mod 4] (puzzle: Same State 2) | – | – | – | 27.9 nM | – | –
4 | CGGGUACAUGAGGAUCACCCAUGUAGAAGAGAUGCAGGAUAUGUGGGAAAAGGGAAUGUAACAGAAGGGCAAGGAG [JR_SS!_Sub017] (puzzle: Same State 1) | – | – | – | 56.1 nM | 47.4 nM | 94.1 nM
5 | CGGUGAGAGACAGGAUAUCGAGCCUAACGAGGCCGAGAAGGGUCGCCCGAAGCGACCGACAUGAGGAUCACCCAUGUAGAAAGA [Eternabot solution 21] (Eterna round: R96, puzzle: Same State NG 1) | 34.2 nM | 30 nM | 40.4 nM | – | – | –
6 | CGUCCGGCCUGAGCUGGUCGGAAGCAUGUACAUGAGGAUCACCCAUGUUCAUGUGCAGGCUUUUUGCUCGUCUUGUG [salish99_mir208a_modof_jandersonlee_004] (puzzle: Sensor for hsa-mir-208a) | – | – | – | 13.1 nM | 39.8 nM | 39.6 nM
7 | CGUCCGGCCUGUGCUGGCCGGUUGCUUGUACAUGAGGAUCACCCAUGUUCUUGUGCUGGCUUUUUGCUCGUCUUGUG [salish99_mir208a_019] (puzzle: Sensor for hsa-mir-208a) | – | – | – | 19.2 nM | 31.5 nM | 37.8 nM
8 | CGUUGGACAUCCAGCAAGACAUGAGGAUCACCCAUGUAGGCGCAGGAUAUGCGGGUUCGGUGCUCGCAGAAGGGUGAAGAAAAC [Araerar] (Eterna round: R96, puzzle: Same State NG 3) | 35.5 nM | 21.3 nM | 30.4 nM | – | – | –
9 | CUAUCUACAGGUUGCAGUGCUCGUCUUAUACAUGAGGAUCACCCAUGUUAUAGCCCGGUGCUUGCGCUGGGCUGAUU [JL ViennaUCT Tearor mod 2] (Eterna round: R96, puzzle: Sensor for hsa-mir-208a) | 40.9 nM | 16.4 nM | 41.1 nM | – | – | –
10 | CUAUCUACAGGUUGCAGUGCUCGUCUUAUACAUGAGGAUCACCCAUGUUAUAGCCCGGUGCUUGCGCUGGGCUGAUU [JL ViennaUCT Tearor mod 2] (puzzle: Sensor for hsa-mir-208a) | – | – | – | 16.4 nM | 36.4 nM | 43 nM
11 | CUCAACAACACAGGAUAUCCAGGGAAAAGACCUGGAGAAGGGUGACCAACAUGAGGAUCACCCAUGUGACAGCCAGGCUGUCUG [Esisiszaon] (Eterna round: R96, puzzle: Same State NG 1) | 164 nM | 84.4 nM | 47.7 nM | – | – | –
12 | CUCCCACGUGCACAGGAUAUGCCGGGAUGCACAUGAGGAUCACCCAUGUAAUCCUGAAAAUAAAAGCAGAAGGGUGAUCAUGGGU [Teestege] (puzzle: Same State 2) | – | – | – | 11.6 nM | 36.1 nM | 10.2 nM
13 | CUGAAAUGUCAAGGAUAUCACGUCGAUUAGACGUGAGAAGGUGAUCUGCACAUGAGGAUCACCCAUGUGUUACAUGGGAGUCAG [Brourd's SSNG1/1-A2 mod 16] (Eterna round: R96, puzzle: Same State NG 1) | 600 nM | 324 nM | 891 nM | – | – | –
14 | CUGAGCAAGCAAGGAUAUCACGUCGAUUAGACGUGAGAAGGUGCUCCUUACAUGAGGAUCACCCAUGUAUAACAUGAAGCUCAG [SSNG1/10-A2] (Eterna round: R96, puzzle: Same State NG 1) | 190 nM | 902 nM | 1090 nM | – | – | –
15 | CUGAGCAGUCAAGGAUAUCACGUCGAAUAGACGUGAGAAGGUGACCAAUACAUGAGGAUCACCCAUGUAAUACAUGAAGCUCAG [SSNG1/12-A1] (Eterna round: R96, puzzle: Same State NG 1) | – | 26 nM | – | – | – | –
16 | CUGAGCAGUCAAGGAUAUCACGUCGUUUAGACGUGAGAAGGUGACCAAUACAUGAGGAUCACCCAUGUAAUACAUGAAGCUCAG [SSNG1/12-A3] (Eterna round: R96, puzzle: Same State NG 1) | 16.2 nM | 17.8 nM | 37.2 nM | – | – | –

Row | Sequence | apparent KD of MS2 coat protein (input ligand: FMN 200 uM) | apparent KD of MS2 coat protein [1] | apparent KD of MS2 coat protein (input ligand: none) | apparent KD of MS2 coat protein [2] | apparent KD of MS2 coat protein [3] | apparent KD of MS2 coat protein [4]
17 | CUGAGCGAUCAAGGAUAUCACGUCGUUUAGACGUGAGAAGGUGAUCAUAACAUGAGGAUCACCCAUGUAUUACAUGAAGCUCAG [SSNG1/2-A3] (Eterna round: R96, puzzle: Same State NG 1) | 208 nM | 462 nM | 1240 nM | – | – | –
18 | CUGAGCGAUUAAGGAUAUCACGUCGAAUAGACGUGAGAAGGUGAUCAUAACAUGAGGAUCACCCAUGUAUUACAUGAAGCUCAG [SSNG1/3-A1] (Eterna round: R96, puzzle: Same State NG 1) | 305 nM | 100 nM | 108 nM | – | – | –
19 | CUGCUACAUGAGGAUCACCCAUGUUGGAGUGAUGCAGGAUAUGUGGGACCAGAAGAUGAAACAGAAGGGCAAGGAG [JR_SS!_Sub006] (puzzle: Same State 1) | – | – | – | 95.7 nM | 110 nM | 152 nM
20 | CUGUCUACAGGUGUCUUUGCUCGUUUUAUACAUGAGGAUCACCCAUGUUAUAGCCCGGUGCUUGCGCUGGGCUGAUU [JL ViennaUCT Tearor mod 8] (puzzle: Sensor for hsa-mir-208a) | – | – | – | 14.1 nM | 66.8 nM | 63 nM
21 | CUUAUUAAUGCAGGAUAUGAUUAACAUGAGGAUCACCCAUGUGGUGUUGUGAGUAAGGAGAGUGAUCAGAAGGGCAUUUUUUUU [JMF's solution 41] (Eterna round: R96, puzzle: Same State NG 2) | 711 nM | 410 nM | 656 nM | – | – | –
22 | CUUUAUCACUAUACAUGAGGAUCACCCAUGUUAUCAUCAUGAGAGGAUAUCGUAUUUGGAUUUUUCGAGAAGGCUCUAUUGUAU [JR_SSNG3_Sub077] (Eterna round: R96, puzzle: Same State NG 3) | – | 158 nM | – | – | – | –
23 | CUUUCUCUUGCAGGAUAUCCUAGUCUUCGGUUAGGAGAAGGGCAAGGAAAUUUGCUAAGCAAGUCUGUAACAGAGAUCCUCCUC [pwkr ssNG1 F9.1] (Eterna round: R96, puzzle: Same State NG 1) | 30.8 nM | 313 nM | 37.9 nM | – | – | –
24 | GAAAAACAUGAGGAUCACCCAUGUAAAAAAAUGGGAGGAUAUACAAAGACGAAAGUCAAAGUAGAAGGCCUGAAAG [same state 2] (Eterna round: R96, puzzle: Same State 1) | – | 42.7 nM | – | – | – | –
25 | GAAUAAAUGAUAGGAUAUACAUGAGGAAUUCUCGUAGAAGGAUCAUGACAUGAGGAUCACCCAUGUAACGCUCGAAAGAGCGUA [Mat - Same State NG 1 - JL mod - D41] (Eterna round: R96, puzzle: Same State NG 1) | 607 nM | 733 nM | 928 nM | – | – | –
26 | GACAAUCUAUCUCAGGAUAUCAUGUCAAAGACAUGAGGAUCACCCAUGUACCAGGAAACUGGUUAUGAGAAGGGAGAUAGAUUGA [Mat - Same State 2 - Mod - D26] (puzzle: Same State 2) | – | – | – | 142 nM | 264 nM | 427 nM
27 | GACAAUCUAUCUGAGGAUAUCAUGAAAAAAACAUGAGGAUCACCCAUGUGCAGGAAAACUGCAUAUGAGAAGGCAGAUAGAUUGC [salish99_SS2_r3_012] (Eterna round: R96, puzzle: Same State 2) | – | 429 nM | – | – | – | –
28 | GACAAUCUAUCUGAGGAUAUCAUGAAAAAAACAUGAGGAUCACCCAUGUGCAGGAAAACUGCAUAUGAGAAGGCAGAUAGAUUGC [salish99_SS2_r3_012] (puzzle: Same State 2) | – | – | – | 443 nM | 34.1 nM | 781 nM
29 | GACAAUCUAUCUGAGGAUAUCAUGAGAAUAACAUGAGGAUCACCCAUGUGCAGGAAAACUGCAUAUGAGAAGGCAGAUAGAUUGA [Mat - Same State 2 - Mod - D15] (puzzle: Same State 2) | – | – | – | 567 nM | 48.2 nM | 603 nM
30 | GACCGCGAGGAAGGAUAUGGAGCCUUAUUGGCUCCAGAAGGUCCAUAAAGGACAUGAGGAUCACCCAUGUGGGUUGAAGCGGUC [Fiskers NG1ss - 38] (Eterna round: R96, puzzle: Same State NG 1) | 24.6 nM | 125 nM | 173 nM | – | – | –
31 | GAGAAGAGGGACAAGGAUAUGUCAGGAGAGACAUGAGGAUCACCCAUGUAGAGGUUGGAGGAGAGACAGAAGGUGUCGGGAGCGA [JR_SS2_Sub013] (puzzle: Same State 2) | – | – | – | 73.7 nM | 86.8 nM | 109 nM
